B1: KD1_(L17R)-KT (Kunitz domain 1 of tissue factor pathway inhibitor-2, Leu17Arg, with C-terminal lysine) (domain or fragment, human, UniProt P48307 30-94, looked up)
chain: GNNAEICLLPLDYGPCRARLLRYYYDRYTQSCRQFLYGGCEGNANNFYTWEACDDACWRIEKVPK
B2: KD1_(L17R)-VT (Kunitz domain 1 of tissue factor pathway inhibitor-2, Leu17Arg, with C-terminal valine) (domain or fragment, human)
chain: GSHMDAAQEPTGNNAEICLLPLDYGPCRARLLRYYYDRYTQSCRQFLYGGCEGNANNFYTWEACDDACWRIEKVPKV

Key:
micro(μ)-plasmin = micro(μ)-plasmin (human, UniProt P00747 561-580; P00747 581-810); assay: SEC
Glu-plasminogen = assay: SPR
[1] = biological target: tissue plasminogen activator (tPA, Alteplase); assay: SPR

Glu-plasminogen, sequence (P00747 20-810): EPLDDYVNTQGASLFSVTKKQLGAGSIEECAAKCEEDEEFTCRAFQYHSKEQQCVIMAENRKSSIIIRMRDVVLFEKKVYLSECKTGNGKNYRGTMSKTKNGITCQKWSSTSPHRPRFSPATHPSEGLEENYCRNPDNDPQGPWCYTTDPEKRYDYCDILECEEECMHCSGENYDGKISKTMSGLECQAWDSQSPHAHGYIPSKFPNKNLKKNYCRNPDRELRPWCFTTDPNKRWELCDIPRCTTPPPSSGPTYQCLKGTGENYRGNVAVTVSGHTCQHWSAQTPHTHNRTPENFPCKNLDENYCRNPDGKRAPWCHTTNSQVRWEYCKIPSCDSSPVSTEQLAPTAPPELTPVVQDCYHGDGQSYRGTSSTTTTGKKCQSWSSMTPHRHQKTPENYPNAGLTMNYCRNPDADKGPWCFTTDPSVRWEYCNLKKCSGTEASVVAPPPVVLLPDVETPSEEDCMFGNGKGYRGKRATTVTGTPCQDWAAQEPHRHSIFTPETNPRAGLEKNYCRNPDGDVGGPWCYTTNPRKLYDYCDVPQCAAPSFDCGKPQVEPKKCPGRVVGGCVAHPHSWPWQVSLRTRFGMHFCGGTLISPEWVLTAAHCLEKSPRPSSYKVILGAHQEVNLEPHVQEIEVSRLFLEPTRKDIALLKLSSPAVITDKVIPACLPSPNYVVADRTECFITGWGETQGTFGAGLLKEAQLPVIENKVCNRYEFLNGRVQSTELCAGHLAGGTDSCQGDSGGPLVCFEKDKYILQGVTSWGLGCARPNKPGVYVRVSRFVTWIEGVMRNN
micro(μ)-plasmin, sequence (P00747 561-580, chain 1 of 2): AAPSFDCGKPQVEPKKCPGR
micro(μ)-plasmin, sequence (P00747 581-810, chain 2 of 2): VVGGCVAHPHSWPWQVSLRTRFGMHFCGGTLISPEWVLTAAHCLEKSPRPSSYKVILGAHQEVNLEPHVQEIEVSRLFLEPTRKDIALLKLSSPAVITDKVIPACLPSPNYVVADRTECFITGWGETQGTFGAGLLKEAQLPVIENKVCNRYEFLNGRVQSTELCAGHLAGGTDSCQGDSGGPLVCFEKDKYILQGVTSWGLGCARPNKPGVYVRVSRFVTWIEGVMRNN

Binder	binding result (micro(μ)-plasmin)	Kd (Glu-plasminogen) [nM]	RU at 1 μM analyte (Glu-plasminogen) [RU]	koff (Glu-plasminogen) [s⁻¹]	kon (Glu-plasminogen) [M⁻¹ s⁻¹]	Kd [1] [nM]	RU at 1 μM analyte [1] [RU]	koff [1] [s⁻¹]	kon [1] [M⁻¹ s⁻¹]
B1	binds	280	86	0.00031	1100	210	155	0.00019	910
B2	binds	–	12	–	–	–	–	–	–

From PMC3985851 (Biochemistry, 2014)
